Experimental data: patent US20170015742A1 (published 2017)

T1: recombinant cynomolgus PDGF-BB (cynomolgus monkey, UniProt P01127 82-190 (human entry), limits assumed)
T1 chain: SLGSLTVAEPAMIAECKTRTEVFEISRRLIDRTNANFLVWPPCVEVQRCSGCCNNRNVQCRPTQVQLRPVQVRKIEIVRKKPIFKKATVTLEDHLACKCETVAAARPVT


Tests used:
[1] = target: T2, recombinant human VEGF165 (human, UniProt P15692 207-395); assay: competition ELISA: DVD-Ig titrated against biotinylated hVEGF165 binding to coated hVEGFR2-Fc
T2 construct: also called hVEGF165; huVEGF-A165
T2 sequence (P15692 other isoform, or with tags, fused parts or gaps limits assumed): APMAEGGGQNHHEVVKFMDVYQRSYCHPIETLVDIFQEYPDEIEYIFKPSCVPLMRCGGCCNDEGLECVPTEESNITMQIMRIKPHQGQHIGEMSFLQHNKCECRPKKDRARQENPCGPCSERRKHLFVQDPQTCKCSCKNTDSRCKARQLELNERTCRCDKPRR
Experimental: To identify molecules that could block the binding of hVEGF₁₆₅ to the hVEGF-R2 (KDR/Flk-1) receptor, a competition ELISA was performed. […] Plates were then washed four times with wash buffer (TBS, 0.05% Tween-20) and blocked with Superblock blocking buffer (Thermo Scientific, cat#37535). […] The pre-incubated sample/hVEGF₁₆₅ complex was added to the coated plate at 50 μL in duplicate and incubated for 30 minutes at 25° C. with shaking. Following incubation, plates were washed four times with wash buffer. Streptavidin-polyHRP-40 (Fitzgerald cal#65r-s104phrp) was diluted in assay diluent (10% Superblock containing 0.05% surfactamps) and added to plates (50 μL) for 45 minutes at 25° C. with shaking. Plates were washed four times with wash buffer and developed with the addition of Enhanced K-blue TMB substrate (Neogen cat#308177). The reaction was stopped with 2N sulfuric acid (VWR, cat# BDH3500-1) and the absorbance was read at 450 nm-570 nm. A decrease in observed optical density indicates the test molecule is blocking the hVEGF₁₆₅ binding to the hVEGF-R2-Fc. Data was analyzed using Softmax Pro 4.8 software and IC₅₀ values calculated using a sigmoidal dose response (variable slope) fit in GraphPad Prism 5.

[2] = target: T2, recombinant human VEGF165; assay: cell-based or functional assay
[3] = target: recombinant human PDGF-BB (human, UniProt P01127 82-190); assay: cell-based or functional assay
[4] = target: recombinant human PDGF-BB (human, UniProt P01127 82-190); assay: cell-based or functional assay; remark: listed apart in the source
[5] = target: recombinant murine PDGF-BB (mouse, UniProt P31240 82-190); assay: cell-based or functional assay
Sequence of recombinant murine PDGF-BB (P31240 82-190 limits assumed): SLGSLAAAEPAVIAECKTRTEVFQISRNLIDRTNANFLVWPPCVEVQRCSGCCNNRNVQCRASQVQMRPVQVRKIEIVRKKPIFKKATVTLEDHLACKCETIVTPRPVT

[6] = target: T1, recombinant cynomolgus PDGF-BB; assay: cell-based or functional assay
[7] = target: recombinant rat PDGF-BB (rat, UniProt Q05028 74-182); assay: cell-based or functional assay
Sequence of recombinant rat PDGF-BB (Q05028 74-182 limits assumed): as the sequence (P31240 82-190 limits assumed) above, with I83V, I102V counted along it

Row | Binder | IC50 [1] | HMVEC-d hVEGF165 Potency IC50 [2] | NIH-3T3 hPDGF-BB Potency IC50 [3] | Co-incubation Potency IC50 (nM) hPDGF-BB (NIH-3T3 proliferation, DVD-Ig pre-incubated with excess hVEGF165) [4] | Potency IC50 (nM) mPDGF-BB (NIH-3T3 proliferation) [5] | Potency IC50 (nM) cynoPDGF-BB (NIH-3T3 proliferation) [6] | Potency IC50 (nM) ratPDGF-BB (NIH-3T3 proliferation) [7]
1 | 4G8.3-GS-9E8.4 DVD-Ig (PR-1564010) (bispecific antibody, human IgG1, kappa, L234A L235A, DVD-Ig, outer hBDB-4G8.3 (VEGF), inner hBDI-9E8.4 (PDGF); IgG1 L234A, L235A / kappa) heavy: not shown light: DTVLTQSPATLSLSPGERATLSCRASESVSTHMHWYQQKPGQAPRLLIYGASNLESGVPARFSGSGSGTDFTLTISSLEPEDFAVYFCQQSWNDPFTFGQGTKLEIKRGGSGGGGSGEFVLTQSPGTLSLSPGERATLSCERSSGDIGDSYVSWYQQKPGQAPRLVIYADDQRPSGIPDRFSGSGSGTDFTLTISRLEPEDFAVYYCQSYDINIDIVFGGGTKVEIKGTVAAPSVFIFPPSDEQLKSGTASVVCLLNNFYPREAKVQWKVDNALQSGNSQESVTEQDSKDSTYSLSSTLTLSKADYEKHKVYACEVTHQGLSSPVTKSFNRGEC | 0.126 nM | 0.096 nM |  |  |  |  | 
2 | 4G8.3-SL-9E8.4 DVD-Ig (PR-1564012) (bispecific antibody, human IgG1, kappa, L234A L235A, DVD-Ig, outer hBDB-4G8.3 (VEGF), inner hBDI-9E8.4 (PDGF); IgG1 L234A, L235A / kappa) heavy: not shown light: DTVLTQSPATLSLSPGERATLSCRASESVSTHMHWYQQKPGQAPRLLIYGASNLESGVPARFSGSGSGTDFTLTISSLEPEDFAVYFCQQSWNDPFTFGQGTKLEIKRTVAAPSVFIFPPEFVLTQSPGTLSLSPGERATLSCERSSGDIGDSYVSWYQQKPGQAPRLVIYADDQRPSGIPDRFSGSGSGTDFTLTISRLEPEDFAVYYCQSYDINIDIVFGGGTKVEIKGTVAAPSVFIFPPSDEQLKSGTASVVCLLNNFYPREAKVQWKVDNALQSGNSQESVTEQDSKDSTYSLSSTLTLSKADYEKHKVYACEVTHQGLSSPVTKSFNRGEC | 0.086 nM |  | 0.365 nM |  |  |  | 
3 | 9E10.1_GS_CL-33675 anti-VEGF-A/anti-PDGF-BB DVD-Ig (PR-1610561) (bispecific antibody, human IgG1, kappa, L234A L235A) heavy: EIQLVQSGSELKKPGASVKVSCKASGYTFTNYGMYWVKQAPGQGLEYMGWIDTETGRPTYADDFKGRFVFSLDTSVSTAYLQISSLKAEDTAVYFCARWSGDTTGIRGPWFAYWGQGTLVTVSSGGGGSGGGGSEVTLRESGPALVKPTQTLTLTCTFSGFSLSTYGMGVGWIRQPPGKALEWLANIWWDDDKYYNPSLKNRLTISKDTSKNQVVLTMTNMDPVDTATYYCARIESSGPKYSFDYWGQGTMVTVSSASTKGPSVFPLAPSSKSTSGGTAALGCLVKDYFPEPVTVSWNSGALTSGVHTFPAVLQSSGLYSLSSVVTVPSSSLGTQTYICNVNHKPSNTKVDKKVEPKSCDKTHTCPPCPAPEAAGGPSVFLFPPKPKDTLMISRTPEVTCVVVDVSHEDPEVKFNWYVDGVEVHNAKTKPREEQYNSTYRVVSVLTVLHQDWLNGKEYKCKVSNKALPAPIEKTISKAKGQPREPQVYTLPPSREEMTKNQVSLTCLVKGFYPSDIAVEWESNGQPENNYKTTPPVLDSDGSFFLYSKLTVDKSRWQQGNVFSCSVMHEALHNAYTQKSLSLSPGK light: DIRMTQSPSSLSASVGDRVTIECLASEDIYSDLAWYQQKPGKSPKLLIYNANGLQNGVPSRFSGSGSGTDYSLTISSLQPEDVATYFCQQYNYFPGTFGQGTKLEIKGGSGGGGSGGEIVLTQSPGTLSLSPGERATLSCRASSGSIWYSFVSWYQQKPGQAPRLLIYADDQRASGIPDRFSGSGSGTDFTLTISRLEPEDFAVYYCQSYGINIDVVFGGGTKVEIKRTVAAPSVFIFPPSDEQLKSGTASVVCLLNNFYPREAKVQWKVDNALQSGNSQESVTEQDSKDSTYSLSSTLTLSKADYEKHKVYACEVTHQGLSSPVTKSFNRGEC |  |  |  | 0.04 nM | 0.032 nM | 0.035 nM | 0.038 nM
4 | 4G8.3-LS-9E8.4 DVD-Ig (PR-1564013) (bispecific antibody, human IgG1, kappa, L234A L235A, DVD-Ig, outer hBDB-4G8.3 (VEGF), inner hBDI-9E8.4 (PDGF); IgG1 L234A, L235A / kappa) heavy: not shown light: DTVLTQSPATLSLSPGERATLSCRASESVSTHMHWYQQKPGQAPRLLIYGASNLESGVPARFSGSGSGTDFTLTISSLEPEDFAVYFCQQSWNDPFTFGQGTKLEIKRTVAAPEFVLTQSPGTLSLSPGERATLSCERSSGDIGDSYVSWYQQKPGQAPRLVIYADDQRPSGIPDRFSGSGSGTDFTLTISRLEPEDFAVYYCQSYDINIDIVFGGGTKVEIKGTVAAPSVFIFPPSDEQLKSGTASVVCLLNNFYPREAKVQWKVDNALQSGNSQESVTEQDSKDSTYSLSSTLTLSKADYEKHKVYACEVTHQGLSSPVTKSFNRGEC | 0.092 nM | 0.06 nM | 0.152 nM |  |  |  | 
